# Source: PMC10786891, “Massively parallel profiling of RNA-targeting CRISPR-Cas13d”
# T1: EsCas13d, nuclease-dead (Eubacterium siraeum, UniProt B0MS50, R295A;H300A;R849A;H854A)
# T1 sequence: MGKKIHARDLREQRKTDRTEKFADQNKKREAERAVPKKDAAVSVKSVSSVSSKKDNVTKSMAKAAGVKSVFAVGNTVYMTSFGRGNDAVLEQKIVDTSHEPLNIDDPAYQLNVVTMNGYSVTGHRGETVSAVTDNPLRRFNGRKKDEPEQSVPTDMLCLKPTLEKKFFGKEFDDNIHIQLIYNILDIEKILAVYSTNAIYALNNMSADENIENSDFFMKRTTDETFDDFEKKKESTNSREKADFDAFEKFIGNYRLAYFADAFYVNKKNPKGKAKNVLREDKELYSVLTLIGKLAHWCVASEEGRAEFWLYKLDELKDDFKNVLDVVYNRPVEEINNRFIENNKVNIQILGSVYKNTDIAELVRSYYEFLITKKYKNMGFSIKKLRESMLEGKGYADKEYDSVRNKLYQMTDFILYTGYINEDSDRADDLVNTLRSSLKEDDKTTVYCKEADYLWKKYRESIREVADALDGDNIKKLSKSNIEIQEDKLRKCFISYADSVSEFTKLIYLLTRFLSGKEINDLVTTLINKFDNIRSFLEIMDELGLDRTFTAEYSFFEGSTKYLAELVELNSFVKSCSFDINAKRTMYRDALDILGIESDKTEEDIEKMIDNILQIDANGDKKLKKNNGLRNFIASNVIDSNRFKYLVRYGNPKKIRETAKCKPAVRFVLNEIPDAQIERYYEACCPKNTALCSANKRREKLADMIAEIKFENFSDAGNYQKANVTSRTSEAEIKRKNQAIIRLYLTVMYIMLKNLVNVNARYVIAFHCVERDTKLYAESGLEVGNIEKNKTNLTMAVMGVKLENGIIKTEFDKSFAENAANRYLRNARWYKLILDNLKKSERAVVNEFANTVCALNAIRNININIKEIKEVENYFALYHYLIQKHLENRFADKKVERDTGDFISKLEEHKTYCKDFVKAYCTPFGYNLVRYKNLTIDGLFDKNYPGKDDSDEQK
# Molecular target: T1, EsCas13d, nuclease-dead
# Experiment: crRNA (strand 1, pre-loaded); Mg2+; 40 mM Tris-HCl pH 7.5, 150 mM NaCl, 6 mM MgCl2, 1 mM DTT, 0.1% Tween-20, 0.2 mg/ml BSA; 25 C; 10 min per concentration, then washed
# Conditions: tags: His6-TwinStrep-SUMO cleaved; N-terminal SNAP kept (SNAP-Surface 488); label: 3' end held by stalled T7 RNA polymerase
row,Binder,Kd
1,"target 1 U10C,A14G (mixed) RNA 1: CACCCGUGCAAAAAUGCAGGGGUCUAAAACUGAGCGGAUAACCUCUCUAUGG RNA 2: GGGAAUGGAUCCACAUCUACGAAUUCGUACCAUAGAGGGGUCAUCCGCUCACCGAGAUCGGAAGAGCACACGU",34.1 ± 2.8 nM
2,target 2 MT 5'PFS CUG 3'PFS CUG (mixed) RNA 1: CACCCGUGCAAAAUUGCAGGGGUCUAAAACCUUCUCCAAAUUGUUUCAUCCU RNA 2: GGGAAUGGAUCCACAUCUACGAAUUCCUGAGGAUGAAACAAUUUGGAGAAGCUGAGAUCGGAAGAGCACACGU,2.67 ± 0.23 nM
3,target 2 MT 5'PFS CUG 3'PFS CUC (mixed) RNA 1: CACCCGUGCAAAAUUGCAGGGGUCUAAAACCUUCUCCAAAUUGUUUCAUCCU RNA 2: GGGAAUGGAUCCACAUCUACGAAUUCCUGAGGAUGAAACAAUUUGGAGAAGCUCAGAUCGGAAGAGCACACGU,5.7 ± 0.6 nM
4,target 2 MT 5'PFS CUG 3'PFS CUA (mixed) RNA 1: CACCCGUGCAAAAUUGCAGGGGUCUAAAACCUUCUCCAAAUUGUUUCAUCCU RNA 2: GGGAAUGGAUCCACAUCUACGAAUUCCUGAGGAUGAAACAAUUUGGAGAAGCUAAGAUCGGAAGAGCACACGU,3.2 ± 0.4 nM
5,target 2 MT 5'PFS UCA 3'PFS ACG (mixed) RNA 1: CACCCGUGCAAAAUUGCAGGGGUCUAAAACCUUCUCCAAAUUGUUUCAUCCU RNA 2: GGGAAUGGAUCCACAUCUACGAAUUCUCAAGGAUGAAACAAUUUGGAGAAGACGAGAUCGGAAGAGCACACGU,3.6 ± 0.6 nM
6,target 2 MT 5'PFS UCA 3'PFS ACA (mixed) RNA 1: CACCCGUGCAAAAUUGCAGGGGUCUAAAACCUUCUCCAAAUUGUUUCAUCCU RNA 2: GGGAAUGGAUCCACAUCUACGAAUUCUCAAGGAUGAAACAAUUUGGAGAAGACAAGAUCGGAAGAGCACACGU,3.6 ± 0.5 nM
7,target 2 MT 5'PFS UCA 3'PFS ACC (mixed) RNA 1: CACCCGUGCAAAAUUGCAGGGGUCUAAAACCUUCUCCAAAUUGUUUCAUCCU RNA 2: GGGAAUGGAUCCACAUCUACGAAUUCUCAAGGAUGAAACAAUUUGGAGAAGACCAGAUCGGAAGAGCACACGU,13.6 ± 3.1 nM
8,target 2 MT 5'PFS UCA 3'PFS ACU (mixed) RNA 1: CACCCGUGCAAAAUUGCAGGGGUCUAAAACCUUCUCCAAAUUGUUUCAUCCU RNA 2: GGGAAUGGAUCCACAUCUACGAAUUCUCAAGGAUGAAACAAUUUGGAGAAGACUAGAUCGGAAGAGCACACGU,7 ± 1.4 nM
9,target 2 MT 5'PFS AAC 3'PFS UUU (mixed) RNA 1: CACCCGUGCAAAAUUGCAGGGGUCUAAAACCUUCUCCAAAUUGUUUCAUCCU RNA 2: GGGAAUGGAUCCACAUCUACGAAUUCAACAGGAUGAAACAAUUUGGAGAAGUUUAGAUCGGAAGAGCACACGU,7.1 ± 1.3 nM
10,target 2 MT 5'PFS UAG 3'PFS CAA (mixed) RNA 1: CACCCGUGCAAAAUUGCAGGGGUCUAAAACCUUCUCCAAAUUGUUUCAUCCU RNA 2: GGGAAUGGAUCCACAUCUACGAAUUCUAGAGGAUGAAACAAUUUGGAGAAGCAAAGAUCGGAAGAGCACACGU,1.92 ± 0.26 nM
11,target 2 MT 5'PFS AUU 3'PFS UAC (mixed) RNA 1: CACCCGUGCAAAAUUGCAGGGGUCUAAAACCUUCUCCAAAUUGUUUCAUCCU RNA 2: GGGAAUGGAUCCACAUCUACGAAUUCAUUAGGAUGAAACAAUUUGGAGAAGUACAGAUCGGAAGAGCACACGU,11.9 ± 2.2 nM
12,target 1 complement block 6-8 (mixed) RNA 1: CACCCGUGCAAAAAUGCAGGGGUCUAAAACUGAGCGGAUAACCUCUCUAUGG RNA 2: GGGAAUGGAUCCACAUCUACGAAUUCGUACCAUAGAGAGGUUAAGGGCUCACCGAGAUCGGAAGAGCACACGU,8.69 ± 0.24 nM
13,target 2 MT 5'PFS UAG 3'PFS CAG (mixed) RNA 1: CACCCGUGCAAAAUUGCAGGGGUCUAAAACCUUCUCCAAAUUGUUUCAUCCU RNA 2: GGGAAUGGAUCCACAUCUACGAAUUCUAGAGGAUGAAACAAUUUGGAGAAGCAGAGAUCGGAAGAGCACACGU,2.68 ± 0.21 nM
14,target 2 MT 5'PFS CGG 3'PFS AAG (mixed) RNA 1: CACCCGUGCAAAAUUGCAGGGGUCUAAAACCUUCUCCAAAUUGUUUCAUCCU RNA 2: GGGAAUGGAUCCACAUCUACGAAUUCCGGAGGAUGAAACAAUUUGGAGAAGAAGAGAUCGGAAGAGCACACGU,4.4 ± 0.5 nM
15,target 2 MT 5'PFS CGG 3'PFS AAA (mixed) RNA 1: CACCCGUGCAAAAUUGCAGGGGUCUAAAACCUUCUCCAAAUUGUUUCAUCCU RNA 2: GGGAAUGGAUCCACAUCUACGAAUUCCGGAGGAUGAAACAAUUUGGAGAAGAAAAGAUCGGAAGAGCACACGU,5.7 ± 0.9 nM
16,target 2 MT 5'PFS CGG 3'PFS AAC (mixed) RNA 1: CACCCGUGCAAAAUUGCAGGGGUCUAAAACCUUCUCCAAAUUGUUUCAUCCU RNA 2: GGGAAUGGAUCCACAUCUACGAAUUCCGGAGGAUGAAACAAUUUGGAGAAGAACAGAUCGGAAGAGCACACGU,4.2 ± 0.4 nM
17,target 2 MT 5'PFS CAC 3'PFS UUU (mixed) RNA 1: CACCCGUGCAAAAUUGCAGGGGUCUAAAACCUUCUCCAAAUUGUUUCAUCCU RNA 2: GGGAAUGGAUCCACAUCUACGAAUUCCACAGGAUGAAACAAUUUGGAGAAGUUUAGAUCGGAAGAGCACACGU,5.2 ± 0.8 nM
18,target 2 MT 5'PFS UAG 3'PFS CAU (mixed) RNA 1: CACCCGUGCAAAAUUGCAGGGGUCUAAAACCUUCUCCAAAUUGUUUCAUCCU RNA 2: GGGAAUGGAUCCACAUCUACGAAUUCUAGAGGAUGAAACAAUUUGGAGAAGCAUAGAUCGGAAGAGCACACGU,3.7 ± 0.5 nM
19,target 2 MT 5'PFS AUU 3'PFS CAG (mixed) RNA 1: CACCCGUGCAAAAUUGCAGGGGUCUAAAACCUUCUCCAAAUUGUUUCAUCCU RNA 2: GGGAAUGGAUCCACAUCUACGAAUUCAUUAGGAUGAAACAAUUUGGAGAAGCAGAGAUCGGAAGAGCACACGU,6.9 ± 1.1 nM
20,target 2 MT 5'PFS CGG 3'PFS AAU (mixed) RNA 1: CACCCGUGCAAAAUUGCAGGGGUCUAAAACCUUCUCCAAAUUGUUUCAUCCU RNA 2: GGGAAUGGAUCCACAUCUACGAAUUCCGGAGGAUGAAACAAUUUGGAGAAGAAUAGAUCGGAAGAGCACACGU,4.8 ± 0.7 nM
21,target 2 MT 5'PFS GCG 3'PFS CUA (mixed) RNA 1: CACCCGUGCAAAAUUGCAGGGGUCUAAAACCUUCUCCAAAUUGUUUCAUCCU RNA 2: GGGAAUGGAUCCACAUCUACGAAUUCGCGAGGAUGAAACAAUUUGGAGAAGCUAAGAUCGGAAGAGCACACGU,14.3 ± 2.7 nM
22,target 2 MT 5'PFS CGC 3'PFS UGC (mixed) RNA 1: CACCCGUGCAAAAUUGCAGGGGUCUAAAACCUUCUCCAAAUUGUUUCAUCCU RNA 2: GGGAAUGGAUCCACAUCUACGAAUUCCGCAGGAUGAAACAAUUUGGAGAAGUGCAGAUCGGAAGAGCACACGU,6 ± 0.9 nM
23,"target 1 insU 3' of 21,insG 3' of 14 (mixed) RNA 1: CACCCGUGCAAAAAUGCAGGGGUCUAAAACUGAGCGGAUAACCUCUCUAUGG RNA 2: GGGAAUGGAUCCACAUCUACGAAUUCGUACCUAUAGAGAGGGUUAUCCGCUCACCGAGAUCGGAAGAGCACACGU",39 ± 4 nM
24,target 2 MT 5'PFS UCU 3'PFS AAU (mixed) RNA 1: CACCCGUGCAAAAUUGCAGGGGUCUAAAACCUUCUCCAAAUUGUUUCAUCCU RNA 2: GGGAAUGGAUCCACAUCUACGAAUUCUCUAGGAUGAAACAAUUUGGAGAAGAAUAGAUCGGAAGAGCACACGU,26 ± 10 nM
25,target 2 MT 5'PFS CUU 3'PFS CUC (mixed) RNA 1: CACCCGUGCAAAAUUGCAGGGGUCUAAAACCUUCUCCAAAUUGUUUCAUCCU RNA 2: GGGAAUGGAUCCACAUCUACGAAUUCCUUAGGAUGAAACAAUUUGGAGAAGCUCAGAUCGGAAGAGCACACGU,5.6 ± 0.5 nM
26,target 2 MT 5'PFS CUU 3'PFS CUA (mixed) RNA 1: CACCCGUGCAAAAUUGCAGGGGUCUAAAACCUUCUCCAAAUUGUUUCAUCCU RNA 2: GGGAAUGGAUCCACAUCUACGAAUUCCUUAGGAUGAAACAAUUUGGAGAAGCUAAGAUCGGAAGAGCACACGU,10.8 ± 3.5 nM
27,target 2 MT 5'PFS CUU 3'PFS CUG (mixed) RNA 1: CACCCGUGCAAAAUUGCAGGGGUCUAAAACCUUCUCCAAAUUGUUUCAUCCU RNA 2: GGGAAUGGAUCCACAUCUACGAAUUCCUUAGGAUGAAACAAUUUGGAGAAGCUGAGAUCGGAAGAGCACACGU,4.2 ± 0.8 nM
28,target 2 MT 5'PFS UCU 3'PFS AAA (mixed) RNA 1: CACCCGUGCAAAAUUGCAGGGGUCUAAAACCUUCUCCAAAUUGUUUCAUCCU RNA 2: GGGAAUGGAUCCACAUCUACGAAUUCUCUAGGAUGAAACAAUUUGGAGAAGAAAAGAUCGGAAGAGCACACGU,20 ± 8 nM
